Results on four substances are retold here after publication PMC9913818.

Some results are limits rather than exact numbers.

For assay [1], the target named is Abl1 SH2 domain (UniProt P00519). Description: SH2 domain microarray probed with fluorescent peptide. Particulars: reference: unphosphorylated Tyr1510 peptide; sites Y1510.
Assay [2] has as its target Abl2 SH2 domain (UniProt P42684). The description is as above. Particulars: reference: unphosphorylated Tyr1510 peptide; sites Y1510.
The target in assay [3] is Abl1 SH2 domain (UniProt P00519). Briefly: GST pull-down from cell lysate. Particulars: reference: vehicle (DMSO) treated cells; sites Y1510.
Assay [4] has as its target Abl2 SH2 domain (UniProt P42684). Briefly: GST pull-down from cell lysate. The settings on record: reference: vehicle (DMSO) treated cells; sites Y1510.
The target of another assay is Abl1 (UniProt P00519). Description: co-immunoprecipitation with anti-Abl1. The settings on record: reference: vehicle (DMSO) treated cells; sites Y1510.
Another assay addresses Abl2 (UniProt P42684). Description: co-immunoprecipitation with anti-Abl2. Particulars: reference: vehicle (DMSO) treated cells; sites Y1510.
Assay [5] concerns the target GST-tagged SH2 domain of Abl1 (human) (UniProt P00519). Briefly: peptide or protein array; GST-tagged SH2 domains of 124 proteins and GST alone spotted in duplicate on nitrocellulose-coated slides; biotinylated IQGAP1 peptides on streptavidin-Cy3 as probes, 16 h at 4 °C in PBS-Tween with 3% milk and 3% BSA; fluorescence read.
Assay [6] concerns the target GST-tagged SH2 domain of Abl2 (human) (UniProt P42684). The description is as above.
Assay [7] addresses GST-tagged SH2 domain of Abl1 (human) (UniProt P00519). Description: pull-down; GST-SH2 domains of Abl1 or Abl2, or GST, on glutathione-Sepharose, incubated with H1993 cell lysates for 3 h at 4 °C in Buffer A; cells treated with 100 nM crizotinib or DMSO for 24 h; Western blot for IQGAP1. Background: Immunoblotting shows a protein as a band on a membrane.
For assay [8], the target named is GST-tagged SH2 domain of Abl2 (human) (UniProt P42684). Described as above.
In assay [9] the target is endogenous Abl2 (H1993 cells) (human (endogenous in H1993)) (UniProt P42684). Briefly: co-IP; endogenous proteins from H1993 cell lysates (Buffer A: 50 mM Tris-HCl pH 7.4, 150 mM NaCl, 1% Triton X-100); IP with anti-MET, anti-IQGAP1, anti-Abl1 or anti-Abl2, controls IgG or non-immune rabbit serum; for the Abl IPs cells also treated with 100 nM crizotinib or DMSO for 24 h.

Assay [10] deals with endogenous Abl1 (H1993 cells) (human (endogenous in H1993)) (UniProt P00519). The assay is described as above.

Consider “IQGAP1 1502-1518 (from UniProt P46940) pTyr1510 peptide”, for which the “other: array signal as percent of phosphopeptide signal” value in the assay with Abl1 SH2 domain [1] and with Abl2 SH2 domain [2] was “gained; reference less than 0.5” each time.

In the case of “IQGAP1 (from UniProt P46940) 100 nM crizotinib (MET inhibitor), 24 h”, the other: percent decrease vs vehicle with Abl1 SH2 domain [3] amounted to 82%; with Abl2 SH2 domain [4] it was 92%; with Abl1, 84%; in the assay with Abl2, 75%.

As for “biotinylated IQGAP1 peptide (amino acids 1502 to 1518) with non-phosphorylated Tyr1510 (from UniProt P46940 1502-1518)”, the percent of the binding of the tyrosine-phosphorylated peptide (array fluorescence) in assay [5] and in assay [6] was less than 0.5% throughout.

With “endogenous IQGAP1 (H1993 cells) (from UniProt P46940 1-1657) (natural protein)”, the percent less IQGAP1 pulled down after crizotinib against DMSO in assay [7] stood at 82%; in assay [8] it was 92%. For the same substance, the percent decrease of co-immunoprecipitated IQGAP1 after crizotinib against DMSO in assay [9] was 75%; in assay [10], 84%.
